Patent publication US20250262210A1 (TRUSTEES OF COLUMBIA UNIVERSITY IN THE CITY OF NEW YORK, published 2025)

How the values were obtained:
RPAP1 = biological target: T1, RPAP1 (human, UniProt Q9BWH6 1-1393, limits assumed); assay: IP/MS, LZTR1 wild type-FLAG, U87
T1 sequence (looked up): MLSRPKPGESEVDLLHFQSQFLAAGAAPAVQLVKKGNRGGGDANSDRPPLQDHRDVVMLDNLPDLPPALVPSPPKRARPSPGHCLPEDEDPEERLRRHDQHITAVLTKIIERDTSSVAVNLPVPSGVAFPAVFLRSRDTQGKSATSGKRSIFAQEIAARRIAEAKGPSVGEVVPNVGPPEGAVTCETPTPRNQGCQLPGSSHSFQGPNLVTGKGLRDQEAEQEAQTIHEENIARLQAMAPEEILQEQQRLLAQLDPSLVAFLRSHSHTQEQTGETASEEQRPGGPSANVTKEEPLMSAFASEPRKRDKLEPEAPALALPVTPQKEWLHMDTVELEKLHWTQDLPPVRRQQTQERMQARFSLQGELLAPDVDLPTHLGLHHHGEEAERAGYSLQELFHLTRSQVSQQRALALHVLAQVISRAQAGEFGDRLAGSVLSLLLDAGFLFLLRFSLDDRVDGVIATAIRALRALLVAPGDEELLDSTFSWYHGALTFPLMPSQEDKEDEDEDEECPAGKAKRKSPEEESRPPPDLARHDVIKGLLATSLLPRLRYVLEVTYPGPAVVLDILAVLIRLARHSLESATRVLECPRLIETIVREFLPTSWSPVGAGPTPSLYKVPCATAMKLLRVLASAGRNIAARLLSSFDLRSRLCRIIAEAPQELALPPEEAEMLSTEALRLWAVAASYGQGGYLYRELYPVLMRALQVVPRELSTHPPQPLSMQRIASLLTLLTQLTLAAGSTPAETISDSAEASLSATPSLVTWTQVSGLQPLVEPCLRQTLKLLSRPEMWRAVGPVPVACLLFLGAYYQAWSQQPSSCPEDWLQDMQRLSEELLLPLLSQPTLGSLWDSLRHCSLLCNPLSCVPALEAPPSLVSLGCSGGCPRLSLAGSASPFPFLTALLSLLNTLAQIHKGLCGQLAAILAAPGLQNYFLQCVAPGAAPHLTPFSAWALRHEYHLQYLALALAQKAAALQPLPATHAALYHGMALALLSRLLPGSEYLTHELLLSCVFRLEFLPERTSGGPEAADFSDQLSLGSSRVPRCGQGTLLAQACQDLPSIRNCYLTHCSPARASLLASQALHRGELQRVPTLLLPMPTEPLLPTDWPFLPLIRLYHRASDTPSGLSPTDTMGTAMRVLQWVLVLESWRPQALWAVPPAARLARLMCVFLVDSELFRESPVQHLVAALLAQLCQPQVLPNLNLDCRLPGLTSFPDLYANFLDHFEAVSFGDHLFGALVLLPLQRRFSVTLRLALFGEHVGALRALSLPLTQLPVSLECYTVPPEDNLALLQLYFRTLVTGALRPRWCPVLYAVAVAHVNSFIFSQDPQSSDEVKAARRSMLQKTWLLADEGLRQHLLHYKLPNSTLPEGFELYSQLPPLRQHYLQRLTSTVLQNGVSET
Summary of the method: (§1)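 Extracted peptides in 3% acetonitrile/0.1% formic acid ran on a 50 cm C18 column into an Orbitrap Fusion, with MaxQuant identification and spectral counting.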

PEAK1 = PEAK1 (human, UniProt Q9H792 1-1746); assay: IP/MS, LZTR1 wild type-FLAG, U87
Summary of the method: as §1

Chain of PEAK1 (Q9H792 whole entry): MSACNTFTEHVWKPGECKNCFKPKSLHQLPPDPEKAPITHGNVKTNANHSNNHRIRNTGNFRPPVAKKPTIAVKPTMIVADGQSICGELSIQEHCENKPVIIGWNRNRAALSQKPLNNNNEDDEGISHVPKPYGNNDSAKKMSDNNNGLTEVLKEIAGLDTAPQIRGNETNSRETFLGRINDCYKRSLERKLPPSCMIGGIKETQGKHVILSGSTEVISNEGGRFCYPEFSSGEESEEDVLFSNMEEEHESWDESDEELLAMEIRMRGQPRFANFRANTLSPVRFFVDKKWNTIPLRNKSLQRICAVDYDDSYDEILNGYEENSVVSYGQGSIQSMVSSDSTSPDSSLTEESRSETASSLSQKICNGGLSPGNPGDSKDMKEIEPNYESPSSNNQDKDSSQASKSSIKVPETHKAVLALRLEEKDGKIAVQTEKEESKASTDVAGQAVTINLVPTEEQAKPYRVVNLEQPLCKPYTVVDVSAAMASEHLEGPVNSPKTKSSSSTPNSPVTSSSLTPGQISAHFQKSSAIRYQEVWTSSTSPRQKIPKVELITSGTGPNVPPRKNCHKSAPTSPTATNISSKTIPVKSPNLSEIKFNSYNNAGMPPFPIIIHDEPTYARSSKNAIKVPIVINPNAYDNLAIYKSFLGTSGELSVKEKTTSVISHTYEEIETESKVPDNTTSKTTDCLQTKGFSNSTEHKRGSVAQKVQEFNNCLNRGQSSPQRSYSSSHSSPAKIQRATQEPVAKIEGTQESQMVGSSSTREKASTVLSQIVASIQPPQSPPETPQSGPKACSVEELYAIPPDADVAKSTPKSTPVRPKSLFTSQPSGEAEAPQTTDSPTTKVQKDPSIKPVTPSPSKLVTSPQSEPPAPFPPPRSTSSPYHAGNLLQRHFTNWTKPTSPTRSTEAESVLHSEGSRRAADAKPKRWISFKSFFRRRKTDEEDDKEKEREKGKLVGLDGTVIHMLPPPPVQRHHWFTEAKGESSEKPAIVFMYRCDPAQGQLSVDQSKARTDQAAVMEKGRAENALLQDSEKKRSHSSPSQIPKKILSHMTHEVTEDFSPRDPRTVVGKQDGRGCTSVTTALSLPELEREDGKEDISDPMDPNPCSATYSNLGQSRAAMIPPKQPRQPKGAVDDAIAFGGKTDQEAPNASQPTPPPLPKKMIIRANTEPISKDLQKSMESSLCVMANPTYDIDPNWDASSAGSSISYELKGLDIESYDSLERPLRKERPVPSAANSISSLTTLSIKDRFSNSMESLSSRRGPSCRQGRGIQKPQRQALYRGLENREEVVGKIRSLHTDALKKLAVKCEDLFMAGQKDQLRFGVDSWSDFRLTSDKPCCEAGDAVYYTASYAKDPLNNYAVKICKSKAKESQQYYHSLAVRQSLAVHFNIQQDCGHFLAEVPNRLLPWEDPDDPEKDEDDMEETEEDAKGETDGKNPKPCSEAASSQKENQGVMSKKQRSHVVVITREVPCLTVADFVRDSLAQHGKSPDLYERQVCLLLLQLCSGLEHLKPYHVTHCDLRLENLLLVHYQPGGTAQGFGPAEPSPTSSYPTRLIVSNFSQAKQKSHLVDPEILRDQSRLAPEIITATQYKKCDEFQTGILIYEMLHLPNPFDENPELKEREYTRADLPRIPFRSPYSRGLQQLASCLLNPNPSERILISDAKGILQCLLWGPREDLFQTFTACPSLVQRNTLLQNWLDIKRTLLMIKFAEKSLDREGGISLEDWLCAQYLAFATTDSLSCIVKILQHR

binding result (RPAP1): binds
binding result (PEAK1): binds
B1: LZTR1-FLAG (other, human, UniProt Q8N653 1-840, looked up)
chain: MAGPGSTGGQIGAAALAGGARSKVAPSVDFDHSCSDSVEYLTLNFGPFETVHRWRRLPPCDEFVGARRSKHTVVAYKDAIYVFGGDNGKTMLNDLLRFDVKDCSWCRAFTTGTPPAPRYHHSAVVYGSSMFVFGGYTGDIYSNSNLKNKNDLFEYKFATGQWTEWKIEGRLPVARSAHGATVYSDKLWIFAGYDGNARLNDMWTIGLQDRELTCWEEVAQSGEIPPSCCNFPVAVCRDKMFVFSGQSGAKITNNLFQFEFKDKTWTRIPTEHLLRGSPPPPQRRYGHTMVAFDRHLYVFGGAADNTLPNELHCYDVDFQTWEVVQPSSDSEVGGAEVPERACASEEVPTLTYEERVGFKKSRDVFGLDFGTTSAKQPTQPASELPSGRLFHAAAVISDAMYIFGGTVDNNIRSGEMYRFQFSCYPKCTLHEDYGRLWESRQFCDVEFVLGEKEECVQGHVAIVTARSRWLRRKITQARERLAQKLEQEAAPVPREAPGVAAGGARPPLLHVAIREAEARPFEVLMQFLYTDKIKYPRKGHVEDVLLIMDVYKLALSFQLCRLEQLCRQYIEASVDLQNVLVVCESAARLQLSQLKEHCLNFVVKESHFNQVIMMKEFERLSSPLIVEIVRRKQQPPPRTPLDQPVDIGTSLIQDMKAYLEGAGAEFCDITLLLDGHPRPAHKAILAARSSYFEAMFRSFMPEDGQVNISIGEMVPSRQAFESMLRYIYYGEVNMPPEDSLYLFAAPYYYGFYNNRLQAYCKQNLEMNVTVQNVLQILEAADKTQALDMKRHCLHIIVHQFTKVSKLPTLRSLSQQLLLDIIDSLASHISDKQCAELGADI
notes: Expressed in HEK 293T, HeLa or U87 cells; used as cell lysate; also called LZTR1 wild type-FLAG; LZTR1 WT; not shown: FLAG tag at the C-terminus
